How the values were obtained:
Assay in all cases: cell_activity
[1] = test system: zebrafish nd4 reverse mitoTALE-nickase-2 (synthetic (Xanthomonas TALE-FokI)?); conditions: nd4 nickase-1 + nickase-2, zebrafish embryos
[2] = test system: zebrafish atp8 forward mitoTALE-nickase (synthetic (Xanthomonas TALE-FokI)?); conditions: nd5+atp8 nickases, >90% with nd4 nuclease
[3] = test system: zebrafish nd4 reverse mitoTALE nuclease (synthetic (Xanthomonas TALE-FokI)?); conditions: co-injected with nd5 and atp8 nickases; heteroplasmic shift to about 2-10%
[4] = test system: zebrafish nd4 reverse mitoTALE-nickase-1 (synthetic (Xanthomonas TALE-FokI)?); conditions: nd4 nickase-1 + nickase-2, zebrafish embryos
[5] = test system: zebrafish nd4 forward mitoTALE-nickase-1 (synthetic (Xanthomonas TALE-FokI)?); conditions: nd4 nickase-1 + nickase-2, zebrafish embryos
[6] = test system: zebrafish nd4 forward mitoTALE nuclease (synthetic (Xanthomonas TALE-FokI)?); conditions: co-injected with nd5 and atp8 nickases; heteroplasmic shift to about 2-10%
[7] = test system: zebrafish nd4 forward mitoTALE-nickase-2 (synthetic (Xanthomonas TALE-FokI)?); conditions: nd4 nickase-1 + nickase-2, zebrafish embryos
[8] = test system: zebrafish nd5 reverse mitoTALE-nickase (synthetic (Xanthomonas TALE-FokI)?); conditions: nd5+atp8 nickases, >90% with nd4 nuclease
[9] = test system: zebrafish nd5 forward mitoTALE-nickase (synthetic (Xanthomonas TALE-FokI)?); conditions: nd5+atp8 nickases, >90% with nd4 nuclease
[10] = test system: zebrafish atp8 reverse mitoTALE-nickase (synthetic (Xanthomonas TALE-FokI)?); conditions: nd5+atp8 nickases, >90% with nd4 nuclease

ACGAGTTAGAAGCAT (double strand) [zebrafish nd4 nickase-2 reverse half-site]
activity (% embryos with deletion) [1]: 50

TCCTTACTATTATTC (double strand) [zebrafish atp8 forward half-site]
activity (% embryos with deletion) [2]: 30

CGGGTAATAATGATT (double strand) [zebrafish nd4 nuclease reverse half-site]
activity (% embryos with deletion) [3]: > 90

AAGTTCTGGTTTTAA (double strand) [zebrafish nd4 nickase-1 reverse half-site]
activity (% embryos with deletion) [4]: 50

TTACACCTAATTCCT (double strand) [zebrafish nd4 nickase-1 forward half-site]
activity (% embryos with deletion) [5]: 50

TATATTCGAAGCTAC (double strand) [zebrafish nd4 nuclease forward half-site]
activity (% embryos with deletion) [6]: > 90

GACTAAAATGAACCT (double strand) [zebrafish nd4 nickase-2 forward half-site]
activity (% embryos with deletion) [7]: 50

GCTAGATGTGGTTGG (double strand) [zebrafish nd5 reverse half-site]
activity (% embryos with deletion) [8]: 30

AGGGCTAATGATAGT (double strand) [zebrafish nd5 forward half-site]
activity (% embryos with deletion) [9]: 30

TAGGTTGAATGTGAT (double strand) [zebrafish atp8 reverse half-site]
activity (% embryos with deletion) [10]: 30
